In the supplement of paper PMC9170038:

System: MS2 coat protein
Experiment: apparent KD of MS2 coat protein; designed switch direction (-1 OFF switch, 1 ON switch): 1; higher = weaker reporter binding
Outline: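 Each step of the titration lasted 0.8–1.5 h at the lowest concentration and 10–20 min at the highest. The protein, SNAP-549-labelled MS2 coat protein, went from 0.7 or 1.5 nM doubling to 3 µM over RNA switches transcribed on Illumina chips by stalled E. coli RNA polymerase. Normalised cluster fluorescence was curve-fitted, and the per-design median over clusters is given as apparent KD.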

[1] = input ligand: microRNA oligo, concentration not stated
[2] = Eterna round: R95, input ligand: microRNA oligo, concentration not stated
[3] = Eterna round: R95, input ligand: FMN 200 uM
[4] = Eterna round: R95, input ligand: none

Sequence | apparent KD of MS2 coat protein (input ligand: FMN 200 uM) [nM] | apparent KD of MS2 coat protein [1] [nM] | apparent KD of MS2 coat protein (input ligand: none) [nM] | apparent KD of MS2 coat protein [2] [nM] | apparent KD of MS2 coat protein [3] [nM] | apparent KD of MS2 coat protein [4] [nM]
GAGGGCGAAAGCAACAUGAGGAUCACCCAUGUCCUCGGAGGGCAGGAUAUCCGGCGGUAGCCGAAGGAGAAGGGUCGGUAAGAA [AK SSNG3-V2-33.1] (Eterna round: R96, puzzle: Same State NG 3) | 159 | 107 | 584 | – | – | –
AACAUGAGGAUCACCCAUGUCAGGCCGCCGGCCUACAUGAGGAAGGAUAUAGCCUCGAAAAUAGGCUAGAAGGUCCUCAUGAAU [Orises] (Eterna round: R96, puzzle: Same State NG 3) | 78.6 | 6.35 | 23.2 | – | – | –
CUCAAACAUGAGGAUCACCCAUGUGUUGUCGUGGGAGGAUAUCCCGGUUCGGUGGCGUCGGGAGAAGGCCUAUGUC [× ×•×ª×• ×ž×“×™× ×” × ×—×ª-17] (puzzle: Same State 1) | – | – | – | 54.8 | – | –
GAUCGUUUGAUAGGAUAUCGCUAUACAUGAGGAUCACCCAUGUUUACCACGCUGGUUUUUCAUACCGAGAAGGAUUCUGAUGAU [salish99_SSNG02_r04_009] (Eterna round: R96, puzzle: Same State NG 2) | 29.9 | 24.9 | 36.9 | – | – | –
AGCGGAUAACAGUAGGAUAUGGCCAACGCCACAUGAGGAUCACCCAUGUCGUACCGGCACCUGGACUAGAAGGACUGCCUCCCGC [Ariscedi] (puzzle: Same State 2) | – | – | – | 22.8 | – | –
AUUAUUAAUGCAGGAUAUGAUUAACAUGAGGAUCACCCAUGUGGUGUUGUGAGUAAGGAGAGUGAUCAGAAGGGCAUUUUUUAU [JMF's solution 15] (Eterna round: R96, puzzle: Same State NG 2) | 959 | 387 | 1190 | – | – | –
AAGUUACUAUCUCAGGAUAUCAUGUCAAAGACAUGAGGAUCACCCAUGUACCAGGAAACUGGUUAUGAGAAGGGAGAUAGUAACG [Mat - Same State 2 - Mod - D53] (puzzle: Same State 2) | – | – | – | 149 | 497 | 443
GCUACCAUUGAAGCCAACAUGAGGAUCACCCAUGUAUGUUGGUAGGAUAUCGAUUGCAAAGCGAUCGAGAAGGGCUAAGGUAGC [Mat - Same State NG 3 - JL Mod - D81] (Eterna round: R96, puzzle: Same State NG 3) | 81.2 | 57.4 | 66.8 | – | – | –
GGAGAGAAGUGAGGAUAUGCAUGGAAGACACAUGAGGAUCACCCAUGUGGGAGGGAAACCGGGAGGUAGAAGGCACUGGGAAGA [AK SSNG2-V2-25] (Eterna round: R96, puzzle: Same State NG 2) | 83.7 | 24.1 | 107 | – | – | –
GUGGUCAGACAUGAGGAUCACCCAUGUGGAAUAAAUAAGGAUCAGGAUAUGGAAUAUAGGAUAUACCAGAAGGGAUGGUUGGUG (Eterna round: R96, puzzle: Same State NG 3) | 59.9 | 41.7 | 52.6 | – | – | –
UUAAUAAUGUAAGGAUAUACAUGAGGAUUUCUCGUAGAAGGUACAGGACAUGAGGAUCACCCAUGUAUCGCUCAGAAGAGCGUA [Mat - Same State NG 1 - JL mod - D24] (Eterna round: R96, puzzle: Same State NG 1) | 1400 | 715 | 1750 | – | – | –
UAGGAACAUGAGGAUCACCCAUGUACCUCAUAUGGAGAAACACAGGAUAUGCUGAGGGAAACACAGCAGAAGGGUGAAGAGAGG [Default title] (Eterna round: R96, puzzle: Same State NG 3) | 22.7 | 27.1 | 32.8 | – | – | –
CUGCUACAUGAGGAUCACCCAUGUUGGAGUGAUGCAGGAUAUGUGGGACCAGAAGAUGAAACAGAAGGGCAAAGAA [JR_SS!_Sub005] (puzzle: Same State 1) | – | – | – | 119 | 98.4 | 97.6
GGCCUGAGUCAAGGAUAUGCUACCGUUUCGGUAGCAGAAGGUGAUCACAUGAGGAUCACCCAUGUUUACGGGAAGACCCGCGCC (Eterna round: R96, puzzle: Same State NG 1) | 1470 | 141 | 489 | – | – | –
CUGAGCAAUCAAGGAUAUCACGUCGAUUAGACGUGAGAAGGUGAUCAUUACAUGAGGAUCACCCAUGUGUUACAUGGAGCUCAG [Brourd's SSNG1/1-A2 mod 3] (Eterna round: R96, puzzle: Same State NG 1) | 395 | 54.9 | 159 | – | – | –
AUUGCUAUCACAGGAUAUCAUGCGAAAAUUGCGUGAGAAGGGUGGACUCUGUCAUUCACGGAGGACAUGAGGAUCACCCAUGUC [SameState NG1 #81] (Eterna round: R96, puzzle: Same State NG 1) | 1020 | 15.5 | 32.3 | – | – | –

Sequence | apparent KD of MS2 coat protein (input ligand: FMN 200 uM) [nM] | apparent KD of MS2 coat protein [1] [nM] | apparent KD of MS2 coat protein (input ligand: none) [nM] | apparent KD of MS2 coat protein [2] [nM] | apparent KD of MS2 coat protein [3] [nM] | apparent KD of MS2 coat protein [4] [nM]
ACUCAGUACAAUUUAGAUCUACAUGAGGAUCACCCAUGUACUGAGGAUAUCAGCUCGUUUAGAGCUGAGAAGGCAGUUGUACUA [SSNG3/10-A3] (Eterna round: R96, puzzle: Same State NG 3) | 108 | 221 | 311 | – | – | –
UACAAUCUAUCUGAGGAUAUCAUGAUUCUAACAUGAGGAUCACCCAUGUGCAGGAAAACUGCAUAUGAGAAGGCAGAUAGAUUGU [salish99_ss2_r3_072] (puzzle: Same State 2) | – | – | – | 33.3 | 67.7 | 148
GGAAAGAGGUAAGGAUAUGCAUGGCUGGGACAUGAGGAUCACCCAUGUUAUAGAAGAAAUCUAGGGUAGAAGGUACAAGGAAGG [AK SSNG2-V2-9.1] (Eterna round: R96, puzzle: Same State NG 2) | 464 | 199 | 455 | – | – | –
CGUAGGAUAUGCAGAGGAUCACCCUGUAGAAGGACGAUUACACAGGAUAUGCAGAGGAUCACCCUGUAGAAGGGUGACUAAUCU [pwkr ssNG3 DX 2xF5 +2xFMN.3] (Eterna round: R96, puzzle: Same State NG 3) | 25.8 | 34.4 | 55.7 | – | – | –
CGGCGCUGUCGAGAGGAUAUGCGGUGAUGGACAUGAGGAUCACCCAUGUUAGCGAUAGCAUUACGGUAGAAGGCUCUACAGUUGC [Soteed Omei mod 8] (puzzle: Same State 2) | – | – | – | 74.9 | 19.2 | 66.9
GUUACAUGAGGAUCACCCAUGUAUGUGUGGGAGUAAGUGUCUUAGGAUAUCUAGUAUUUAAUUUUAGAGAAGGAAGAUUGUUGU [JMF's solution 69] (Eterna round: R96, puzzle: Same State NG 3) | 128 | 121 | 134 | – | – | –
UAAACUUCUUUUAGUGUAAUGCAAGUGAUACAUGAGGAUCACCCAUGUUUUGGAUCGUGUUAUUUUGUUCGUCUUAA [JR_SHM208A_Sub077] (puzzle: Sensor for hsa-mir-208a) | – | – | – | 30.3 | 33.2 | 42.9
GUGGUCAGACAUGAGGAUCACCCAUGUGGAAUAAAUAAGGAGAAGGAUAUUCAAUAUAGGAUAUAGAAGAAGGUCUGGUUGGUG (Eterna round: R96, puzzle: Same State NG 3) | – | 63.7 | – | – | – | –
CAGCGCUGUCGAGAGGAUAUGCGGUGAUGGACAUGAGGAUCACCCAUGUUAGCGAUAGCAUUACGGUAGAAGGCUCUACAGCUGC [Soteed no mod] (puzzle: Same State 2) | – | – | – | 25.5 | 15 | 30.2
CUGAGCAAUCAAGGAUAUCACGUCGAAUAGACGUGAGAAGGUGAUCAUAACAUGAGGAUCACCCAUGUAUUACAUGAAGCUCAG [SSNG1/1-A1] (Eterna round: R96, puzzle: Same State NG 1) | 512 | 399 | 1280 | – | – | –
UAAUUAAGUCAAGGAUAUCACGUCGAUUAGACGUGAGAAGGUGAUUAAUACAUGAGGAUCACCCAUGUAAUACAUGAAUAAUUA [SSNG1/11-B2] (Eterna round: R96, puzzle: Same State NG 1) | 37.1 | 61.4 | 76.1 | – | – | –
ACAUGAAAUUGAGGAUAUUUUGUACCUACAUGUGACAUGAGGAUCACCCAUGUGGUAAGUAUGAGAAAGAAGGCAAAGAUAUGU [Equivalence 11 - Jieux - Same State NG 2] (Eterna round: R96, puzzle: Same State NG 2) | 26.6 | 43.3 | 51 | – | – | –
GGAGCCGACACUGAGGAUAUUCAUAUUAAAACAUGAGGAUCACCCAUGUAGGCCAGAAGGCCUUGGGAGAAGGCAGGCCGGCUCG [Inxebi] (Eterna round: R96, puzzle: Same State 2) | 21.9 | 166 | 287 | – | – | –
GCUCGCGGCACAGGAUAUGGGUGCCUGUACAUGAGGAUCACCCAUGUUAAGGGACGGAUUACGAACCAGAAGGGUGUGGCAAGC [Reonisma] (Eterna round: R96, puzzle: Same State NG 2) | 95.5 | 294 | 1060 | – | – | –
AGUCCAGCCUGAGCUGGACAAAAGCAUGUACAUGAGGAUCACCCAUGUUCAUGUACAAGCUUUUUGCUCGUCUUACG [salish99_208a_r3_078] (puzzle: Sensor for hsa-mir-208a) | – | – | – | 17.1 | 673 | 638
